One may read the EC50 as the concentration that produces a half-maximal response. Lower therefore signals an effect from little substance.

We go through seven molecules from patent US20200283519A1 (IMCHECK THERAPEUTICS, published 2020).

To fix the notation:
T1: human BTN2A1 CFP(Nter)-fusion protein expressed on 293F BTN3/BTN2 KO cells (human, UniProt Q7KYR7 29-527)
T1 construct: also called pcDNA3-Zeo-BTN2A1-CFP; not shown: CFP fused at the N-terminus (CFP(Nter)-fusion)
T1 sequence: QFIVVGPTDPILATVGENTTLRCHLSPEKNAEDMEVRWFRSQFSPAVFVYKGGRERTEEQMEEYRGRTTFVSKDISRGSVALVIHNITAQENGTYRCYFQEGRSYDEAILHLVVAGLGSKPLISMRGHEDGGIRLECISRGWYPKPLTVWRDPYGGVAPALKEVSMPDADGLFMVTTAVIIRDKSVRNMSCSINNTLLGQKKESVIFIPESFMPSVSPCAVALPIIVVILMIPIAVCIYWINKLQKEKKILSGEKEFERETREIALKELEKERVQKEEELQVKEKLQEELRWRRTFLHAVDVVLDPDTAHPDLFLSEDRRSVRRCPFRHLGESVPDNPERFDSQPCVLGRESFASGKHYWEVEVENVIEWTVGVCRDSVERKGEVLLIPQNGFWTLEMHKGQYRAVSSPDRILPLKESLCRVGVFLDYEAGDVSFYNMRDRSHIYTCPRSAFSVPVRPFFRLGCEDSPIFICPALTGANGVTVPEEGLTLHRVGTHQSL

T2: human BTN2A2 expressed on HEK293F cells transfected with BTN2A2-Flag plasmid (human, UniProt Q8WVV5 33-523)
T2 construct: HEK293F cells here are not knocked out for endogenous BTN2/BTN3; also called HEK-BTN2 cells; not shown: Flag tag
T2 sequence: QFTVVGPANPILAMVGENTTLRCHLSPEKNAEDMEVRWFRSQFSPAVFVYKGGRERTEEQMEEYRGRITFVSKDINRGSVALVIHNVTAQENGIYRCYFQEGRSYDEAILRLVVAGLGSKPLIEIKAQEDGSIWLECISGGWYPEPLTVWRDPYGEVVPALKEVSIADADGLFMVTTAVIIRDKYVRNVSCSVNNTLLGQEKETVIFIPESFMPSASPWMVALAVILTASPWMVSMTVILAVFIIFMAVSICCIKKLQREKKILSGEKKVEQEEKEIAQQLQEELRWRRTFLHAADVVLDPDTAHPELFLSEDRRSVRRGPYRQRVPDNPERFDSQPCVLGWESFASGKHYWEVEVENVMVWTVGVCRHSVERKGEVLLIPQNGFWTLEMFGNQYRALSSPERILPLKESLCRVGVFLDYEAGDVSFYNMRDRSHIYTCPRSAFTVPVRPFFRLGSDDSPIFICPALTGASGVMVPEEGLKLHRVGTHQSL

T3: human BTN2A2 CFP(Nter)-fusion protein expressed on 293F BTN3/BTN2 KO cells (human, UniProt Q8WVV5 33-523)
T3 construct: also called pcDNA3-Zeo-BTN2A2-CFP; not shown: CFP fused at the N-terminus (CFP(Nter)-fusion)
T3 sequence: T2 sequence

B1: mAb3 (mouse anti-human BTN2 mAb 7.28) (antibody, V domains shown)
VH: QVHLQQSGAELMKPGASVKISCKATGYTFSSYWIEWVKQRPGHGREWIGEILPGSGSTKYNEKFRGKATFAADTSSNTAYVQLSSLTSEDSAVYYCARLKGYYGGGAMDYWGQGTSVTVSS
VL: DVQITQSPSYLAASPGETITINCRASKSISKYLAWYQEKPGKTNELLIYSGSTLQSGIPSRFSGSGSGTDFTLTISSLEPEDFAMYYCQQHNEYPWTFGGGTKLEIK
notes: Mouse IgG1 purified from hybridoma supernatant; also called CNCM I-5233
B2: mAb2 (mouse anti-human BTN2 mAb 5.28) (antibody, V domains shown)
VH: QIQLVQSGPELKKPGETVKISCKASGYTFTDYSMNWVKQAPGKGLKWVGRINTETGEPTYADDFKGRFAFSLETSASTAYLQIKNLKNEDTATYFCVRDYAKRWGQGTSVTVSS
VL: DIVMTQSHKFMSTSVGDRVSITCKASQDVITAVAWYQQKPGQSPKLLIYSTSYRYTGVPDRFTGSGSGTDFTFTISSVQAEDLAVYYCLQHYTTPWTFGGGTKLEIK
notes: Mouse IgG1 purified from hybridoma supernatant; also called CNCM I-5232
B3: mAb4 (mouse anti-human BTN2 mAb 7.48) (antibody, V domains shown)
VH: EVQLVESGGDLVKPGGSLKLSCAASGFTFSDFYMYWVRRTPEKRLEWVATISDGGSHTYYPDSVKGRFTISRDNAKNNLYLQMRSLKSEDTAMYYCGRDTTIITPYWGQGTLVTVSA
VL: QSVVTQESALTTSPGETVTLTCRSSTGAVTTSNYANWVQEKPDHLFTGLIGGTNNRAPGVPARFSGSLIGDKAALTITGAQTEDEAIYFCGLWYSNHWVFGGGTKLTVL
notes: Mouse IgG1 purified from hybridoma supernatant; also called CNCM I-5234
B4: mAb5 (mouse anti-human BTN2 mAb 8.15) (antibody, V domains shown)
VH: EVKLLESGGGLVQPGGSLKLSCAASGFDFSGYWMTWVRQAPGKGLEWIGEINPDSSTINYTPSLRDKFIISRDNAKNTLYLQMSKVRSEDTALYFCARGSYYPSYWGQGTLVTVSA
VL: DIVLTQSPASLAVSLGQRATISCRASKSVSSSGYSYMNWYQQKPGQPPKLLIYLASNLESGVPARFSGSGSGTDFTLNIHPVEDEDAATYYCQHSRELPHTFGGGTKLEIK
notes: Mouse IgG1 purified from hybridoma supernatant; also called CNCM I-5235
B5: mAb6 (mouse anti-human BTN2 mAb 8.16) (antibody, V domains shown)
VH: B4 VH
VL: B4 VL
notes: Mouse IgG1 purified from hybridoma supernatant; also called CNCM I-5236
B6: mAb1 (mouse anti-human BTN2 mAb 4.15) (antibody, V domains shown)
VH: QVQLQQSGAELVKPGASVKLSCKASGYIFTSYDINWVRQRPEQGLEWIGWIFPGDDSIIQNEKFKGKATLTTDKSSSTVYMQLSRLTSEDSAVYFCARLGPLRGFTYWGQGTLVTVSA
VL: DIVLTQSPASLAVSLGQRATISCRASESVDRYGSSFMHWYQQKPGQPPKLLIYRASNLESGIPARFSGSGSRTDFTLTINPVEADDVATYYCQQSNEDPWTFGGGTKLEIK
notes: Mouse IgG1 purified from hybridoma supernatant; also called CNCM I-5231
B7: mAb7 (mAb 8.33, comparative control antibody) (antibody, V domains shown)
VH: DVQLQESGPGLVKPSQSLSLTCSVTGYSITSGYYWNWIRQFPGNKLEWMGYISYDGNNNYNPSLKNRISITRDTSKNQFFLKLNSVTTEDTATYYCASPLYDGYYWYFDVWGAGTTVTVSS
VL: ETTVTQSPASLSLAIGEKVTIRCITSTDIDDDMNWYQQKPGEPPKLLISEANTLRPGVPSRFSSSGRGTDFVFTIENMLSEDVADYYCLQSDNLPYTFGGGTKLEIK
notes: Mouse IgG1 purified from hybridoma supernatant; also called CNCM I-5237

The first experiment deals with T1, human BTN2A1 CFP(Nter)-fusion protein …. Kind of experiment: flow cytometry (PE MFI in CFP-positive cells) on 293F BTN3/BTN2 KO cells transfected with BTN2A1-CFP. On the procedure: (§1) HEK-293F cells bearing CRISPR-Cas9-mediated deletions of all isoforms of BTN3 and BTN2 (293F BTN3/BTN2 KO) were generated (data not shown), cultured in DMEM (Life Technologies) 10% fetal bovine serum (FBS, Gibco) 1 mM sodium pyruvate (Thermofisher scientific), and transfected independently with pcDNA3-Zeo-BTN2A1-CFP or pcDNA3-Zeo-BTN2A2-CFP, which encode BTN2A1 and BTN2A2 CFP(Nter)-fusion proteins, using Lipofectamine 2000 reagent (Thermofisher scientific) according to manufacturer's instructions.
(§2) Twenty-four hours after transfection, cells (5×10⁴/sample) were collected and stained in duplicate with the indicated concentrations (2-fold dilutions starting from 20 μg/mL to 64 pg/mL) of all 7 purified anti-human BTN2 mAbs in 50 μL of staining buffer (DPBS1X (Thermofisher scientific) 1% FBS, 1 mM EDTA (Thermofisher scientific)) during 30 minutes at 4° C. Equal concentrations of mouse IgG1 antibody (Miltenyi) were used as isotype control for staining. Then, cells were washed twice with 200 μL of staining buffer, and incubated with a 1:200 dilution of goat anti-mouse Ig-PE conjugated (Jackson Immunoresearch) in staining buffer for 30 min at 4° C. in the dark. Finally, cells were washed twice in staining buffer prior to fixation using BD Cytofix reagent (BD Bioscience) according to manufacturer's instructions. Mean fluorescence intensity (MFI) on PE channel within the CFP-positive population was assessed for each sample in a Cytoflex LX (Beckman Coulter), and analyzed with a FlowJo V10.4.2 software (FlowJo, LLC 2006-2018).
A general note: Flow cytometry measures light scatter and fluorescence of single cells or particles in a stream.
Molecule B1 gave an EC50 of 0.02 µg/mL.
On the same count and under the same terms, in the case of B2 it was 0.04 µg/mL; in that of B3, 0.02 µg/mL; in that of B4, 0.08 µg/mL.
Same read-out and setting: in the case of B5 it was 0.08 µg/mL.
On the same count and under the same terms, as for B6, the figure is 0.06 µg/mL.

For the next experiment, the target named is T2, human BTN2A2 expressed on HEK293F cells …. Kind of experiment: flow cytometry titration on HEK293F cells transfected with BTN2A2-Flag.
In turn, B1 displayed an EC50 of 31.3 µg/mL.
On the same count and under the same terms, in the case of B2 it was 0.07 µg/mL; in that of B3, 0.08 µg/mL.
Molecule B4 returned an EC50 of 0.1 µg/mL.
On the same count and under the same terms, as for B5, the figure is 0.11 µg/mL; as for B6, 0.07 µg/mL.

Another experiment concerns the target T3, human BTN2A2 CFP(Nter)-fusion protein …. Kind of experiment: flow cytometry (PE MFI in CFP-positive cells) on 293F BTN3/BTN2 KO cells transfected with BTN2A2-CFP. On the procedure: as §1, §2
In turn, B1 came in with an EC50 of 11.8 µg/mL.
B2 registered an EC50 of 0.01 µg/mL.
The molecule B3 yielded an EC50 of 0.01 µg/mL.
Still for that read-out and setting: in the case of B4 it was 0.5 µg/mL; in that of B5, 2.4 µg/mL.
Still for that read-out and setting: as for B6, the figure is 0.01 µg/mL.

The target is the same in the next experiment. Kind of experiment: flow cytometry on 293F BTN3/BTN2 KO cells transfected with BTN2A2-CFP. The protocol:
as §1
as §2, with “Finally, cells were washed twice in staining buffer prior to fixation using BD Cytofix reagent (BD Bioscience) according to manufacturer's instructions.” left out
As to B7, the binding result is reported as “no binding”.

The next experiment concerns the target T2, human BTN2A2 expressed on HEK293F cells …. Kind of experiment: flow cytometry on HEK-BTN2 cells (summary table, repeats the 5th table).
B1 registered an EC50 of 31.3 µg/mL.
As for B2, the response was half-maximal at 0.07 µg/mL (EC50).
Still for that read-out and setting: in the case of B3 it was 0.08 µg/mL; in that of B4, 0.1 µg/mL; in that of B5, 0.11 µg/mL.
Same read-out and setting: as for B6, the figure is 0.07 µg/mL.

Another experiment addresses T3, human BTN2A2 CFP(Nter)-fusion protein …. Briefly: flow cytometry on BTN2A2-transfected 293F BTN3/BTN2 KO cells (summary table, repeats the 7th table). On the procedure: as §1, §2
Turning to B1, a half-maximal response (EC50) required 11.8 µg/mL.
Still for that read-out and setting: as for B2, the figure is 0.01 µg/mL; as for B3, 0.01 µg/mL.
Still for that read-out and setting: in the case of B4 it was 0.5 µg/mL; in that of B5, 2.4 µg/mL.
On the same count and under the same terms, as for B6, the figure is 0.01 µg/mL.

Another experiment concerns the target T1, human BTN2A1 CFP(Nter)-fusion protein …. Kind of experiment: flow cytometry on 293F BTN3/BTN2 KO cells transfected with BTN2A1-CFP. On the procedure: as §1
as §2, with “Finally, cells were washed twice in staining buffer prior to fixation using BD Cytofix reagent (BD Bioscience) according to manufacturer's instructions.” left out
As to B7, the binding result is recorded as “no binding”.

Another experiment has the same target. Briefly: flow cytometry on BTN2A1-transfected 293F BTN3/BTN2 KO cells (summary table, repeats the 7th table). The protocol: as §1, §2
Take B1: the midpoint of the response, the EC50, lay at 0.02 µg/mL.
Still for that read-out and setting: in the case of B2 it was 0.04 µg/mL; in that of B3, 0.02 µg/mL; in that of B4, 0.08 µg/mL.
Same read-out and setting: in the case of B5 it was 0.08 µg/mL.
The same measure, in the same setting: in the case of B6 it was 0.06 µg/mL.

Another experiment concerns the target T2, human BTN2A2 expressed on HEK293F cells …. Briefly: flow cytometry on HEK293F cells transfected with BTN2A2-Flag. On the procedure:
FIG. 1: Binding of BTN2 mAbs on HEK293F cells. HEK293F cells were transfected with BTN2A2-Flag plasmid. At day 1 after transfection, BTN2A2 transfected HEK293F cells (A) and non-transfected HEK293F cells (B) were stained with purified mouse anti-human BTN2 mAbs for 20 min at 4° C. Monoclonal Anti-Flag antibody serves as positive control for transfection. After 2 washes, cells were incubated with a secondary goat anti-mouse IgG PE for 20 min at 4° C. and a marker for cell viability. Cells were acquired on a LSRFortessa (BD) and analyzed with FlowJo (TreeStar).
Turning to B7, the binding result is listed as “no binding”.
